Measured values taken from PMC7117775, “CsIVP functions in vasculature development and downy mildew resistance in cucumber”.

T1: CsIVP (Irregular Vasculature Patterning, bHLH) (Cucumis sativus, UniProt A0A0A0KHS6 1-223)
T1 sequence: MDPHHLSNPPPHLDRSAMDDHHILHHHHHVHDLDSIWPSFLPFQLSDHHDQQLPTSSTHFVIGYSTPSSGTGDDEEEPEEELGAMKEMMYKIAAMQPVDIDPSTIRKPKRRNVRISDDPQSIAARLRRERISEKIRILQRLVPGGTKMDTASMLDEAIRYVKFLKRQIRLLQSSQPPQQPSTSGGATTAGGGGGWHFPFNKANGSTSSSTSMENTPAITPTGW


What was measured:
[1] = target: T1, CsIVP (Irregular Vasculature …); assay: EMSA; 80, 120, 160 fmol probe; LightShift Chemiluminescent EMSA Kit (Thermo 20148), manufacturer's instructions; buffer, salt, pH and temperature not stated; settings: protein: recombinant; tags: pET-28a vector (Ni-NTA purified); chain copies: 2; label: 5' biotin on forward strand; blunt
[2] = target: T1, CsIVP (Irregular Vasculature …); assay: EMSA; 80, 120, 160 fmol probe; cold competitor; LightShift Chemiluminescent EMSA Kit (Thermo 20148), manufacturer's instructions; buffer, salt, pH and temperature not stated; settings: protein: recombinant; tags: pET-28a vector (Ni-NTA purified); chain copies: 2; label: 5' biotin on forward strand; blunt

Binder | binding result [1] | binding result [2]
CsCCR1 promoter probe (-1939) (dsDNA) DNA 1: CAAAATTGACTTCTTCCACTTGTGCAGTCAAACAGTTC DNA 2: GAACTGTTTGACTGCACAAGTGGAAGAAGTCAATTTTG | no binding | 
CsBP promoter probe (-333) (dsDNA) DNA 1: ACTTTAATGGCGCACCCTCAACTGAGATATCTATACCC DNA 2: GGGTATAGATATCTCAGTTGAGGGTGCGCCATTAAAGT |  | binds
CsAUX4 promoter probe (-1492) (dsDNA) DNA 1: AGGGATGGAGGTGAGCACATGGGAGGGCCGCTGCC DNA 2: GGCAGCGGCCCTCCCATGTGCTCACCTCCATCCCT |  | binds
CsYAB5 promoter probe (-1626) (dsDNA) DNA 1: TATAAAATTGTTTTAACCAATTGAGTTATATACATTCAA DNA 2: TTGAATGTATATAACTCAATTGGTTAAAACAATTTTATA |  | binds
